# Reference: US20040259176A1, “Structural basis for the guanine nucleotide-binding activity of tissue transglutaminase and its regulation of transamidation activity” (priority 2003, published 2004)
# B1: EGF: epidermal growth factor, a known mitogen and survival factor (protein, UniProt P01133 23-1207, looked up)
# Pro-epidermal growth factor: PQHWSCPEGTLAGNGNSTCVGPAPFLIFSHGNSIFRIDTEGTNYEQLVVDAGVSVIMDFHYNEKRIYWVDLERQLLQRVFLNGSRQERVCNIEKNVSGMAINWINEEVIWSNQQEGIITVTDMKGNNSHILLSALKYPANVAVDPVERFIFWSSEVAGSLYRADLDGVGVKALLETSEKITAVSLDVLDKRLFWIQYNREGSNSLICSCDYDGGSVHISKHPTQHNLFAMSLFGDRIFYSTWKMKTIWIANKHTGKDMVRINLHSSFVPLGELKVVHPLAQPKAEDDTWEPEQKLCKLRKGNCSSTVCGQDLQSHLCMCAEGYALSRDRKYCEDVNECAFWNHGCTLGCKNTPGSYYCTCPVGFVLLPDGKRCHQLVSCPRNVSECSHDCVLTSEGPLCFCPEGSVLERDGKTCSGCSSPDNGGCSQLCVPLSPVSWECDCFPGYDLQLDEKSCAASGPQPFLLFANSQDIRHMHFDGTDYGTLLSQQMGMVYALDHDPVENKIYFAHTALKWIERANMDGSQRERLIEEGVDVPEGLAVDWIGRRFYWTDRGKSLIGRSDLNGKRSKIITKENISQPRGIAVHPMAKRLFWTDTGINPRIESSSLQGLGRLVIASSDLIWPSGITIDFLTDKLYWCDAKQSVIEMANLDGSKRRRLTQNDVGHPFAVAVFEDYVWFSDWAMPSVMRVNKRTGKDRVRLQGSMLKPSSLVVVHPLAKPGADPCLYQNGGCEHICKKRLGTAWCSCREGFMKASDGKTCLALDGHQLLAGGEVDLKNQVTPLDILSKTRVSEDNITESQHMLVAEIMVSDQDDCAPVGCSMYARCISEGEDATCQCLKGFAGDGKLCSDIDECEMGVPVCPPASSKCINTEGGYVCRCSEGYQGDGIHCLDIDECQLGEHSCGENASCTNTEGGYTCMCAGRLSEPGLICPDSTPPPHLREDDHHYSVRNSDSECPLSHDGYCLHDGVCMYIEALDKYACNCVVGYIGERCQYRDLKWWELRHAGHGQQQKVIVVAVCVVVLVMLLLLSLWGAHYYRTQKLLSKNPKNPYEESSRDVRSRRPADTEDGMSSCPQPWFVVIKEHQDLKNGGQPVAGEDGQAADGSMQPTSWRQEPQLCGMGTEQGCWIPVSSDKGSCPQVMERSFHMPSYGTQTLEGGVEKPHSLLSANPLWQQRALDPPHQMELTQ
# modifications: Pro-epidermal growth factor
# Key:
# Assay type in all cases: cell-based, human
# [1] = system: tissue transglutaminase (TG); test: TG transamidation assay (incorporation of 5-(biotin-amido) pentylamine) in SKBR3 cell extracts; details: SKBR3 cells, EGF compared with RA; FIG. 9A-B
# Experimental: (§1) Cells were grown for 2 days in complete media and subsequently placed in low serum. The following day, cells were left untreated (0), treated with 5 μM RA (RA), 100 ng/ml EGF (EGF), or co-treated with 5 μM RA and 100 ng/ml EGF (RA/EGF) for 2 days and then lysed. In FIG. 9A, the cell extracts were used to determine TG GTP-binding activities (GTP-TGase) using an affinity-labeling assay with radioactive GTP as outlined in Example 11. Western blot analysis using TG and actin antibodies was performed to assess the expression levels of each of these proteins (TGase and actin). In FIG. 9B, the same cell lysates were assayed for TG transamidation activities as determined by the incorporation of 5-(biotin-amido) pentylamine into proteins as described in Example 12. The experiments were conducted in triplicate, quantitated, and the values from each experiment were averaged together and plotted. In FIG. 9C, SKBR3 cells were seeded at 1×10^5 cells/well and grown in low serum medium +/−5 μM RA and +/−100 ng/ml EGF for the times indicated and then counted. The results from three independent growth assays were averaged together and plotted.
# TG transamidation assays were performed as previously described with slight modifications. 15 μg of whole cell extracts were incubated in a buffer containing 2 mM 5-(biotin-amido) pentylamine, 40 mM CaCl2, and 40 mM DTT for 20 minutes. […]
# [2] = system: SKBR3 cells; test: Nuclear condensation or blebbing assay (doxorubicin-induced apoptosis); details: SKBR3 cells stimulated with EGF (100 ng/ml) for 2 days prior to doxorubicin; FIG. 11B
# Experimental: FIGS. 1A-D illustrate that the protective effect of EGF from doxorubicin-induced apoptosis is blocked by MDC in SKBR3 cells. In FIG. 11A, nearly confluent cultures of SKBR3 and MDAMB231 cells were placed in low serum medium. The following day, the cells were exposed to low serum medium +/−0.25 μM doxorubicin (Dox) for the times indicated and subsequently lysed. The presence of the activated form of caspase 3 (cleaved caspase 3) and actin (actin) in the cell extracts was assessed by Western blot analysis. In FIG. 11B, SKBR3 and MDAMB231 cells were maintained in low serum medium (0) or treated with 10 μM MDC (MDC) for 1.5 days. […] All cell cultures were then treated with +/−0.25 μM doxorubicin (Dox) for about 1 day and the cells were scored for programmed cell death as described in Example 13. […]
# NIH3T3 cells were grown in Dulbecco's modified Eagle's medium containing 10% calf serum and 100 units/ml penicillin. […] Protein concentrations were determined using the Bio-Rad DC protein assay.
# Cells were seeded in 6-well dishes and grown in complete medium for 2 days. […] The cultures were then incubated with fresh medium containing RA, EGF, and MDC and +/−0.2 μM doxorubicin for an additional 1.5 days and were fixed and stained with 4,6-diamidino-2-phenylindole (2 μg/ml) for viewing by fluorescence microscopy. […]
# [3] = system: tissue transglutaminase (TG); test: TG GTP-binding activity by photoaffinity labeling with [α-32P]GTP in SKBR3 cell lysates; details: SKBR3 cells, 5 μM RA or 100 ng/ml EGF for 2 days; FIG. 9A
# Experimental: as §1
# Photoaffinity labeling of TG was performed by incubating whole cell lysates with 5 μCi of [α-^32P]GTP in 50 mM Tris-HCl, pH 7.4, 2 mM EGTA, 1 mM DTT, 20% (w/v) glycerol, 100 mM NaCl, and 500 μM AMP-PNP for 10 minutes at room temperature. […]
# [4] = system: tissue transglutaminase (TG); test: TG expression by Western blot in SKBR3 cells; details: 5 μM RA or 100 ng/ml EGF for 2 days, FIG. 9A
# Experimental: Cells were grown for 2 days in complete media and subsequently placed in low serum. The following day, cells were left untreated (0), treated with 5 μM RA (RA), 100 ng/ml EGF (EGF), or co-treated with 5 μM RA and 100 ng/ml EGF (RA/EGF) for 2 days and then lysed. In FIG. 9A, the cell extracts were used to determine TG GTP-binding activities (GTP-TGase) using an affinity-labeling assay with radioactive GTP as outlined in Example 11. Western blot analysis using TG and actin antibodies was performed to assess the expression levels of each of these proteins (TGase and actin). In FIG. 9B, the same cell lysates were assayed for TG transamidation activities as determined by the incorporation of 5-(biotin-amido) pentylamine into proteins as described in Example 12. The experiments were conducted in triplicate, quantitated, and the values from each experiment were averaged together and plotted. In FIG. 9C, SKBR3 cells were seeded at 1×10^5 cells/well and grown in low serum medium +/−5 μM RA and +/−100 ng/ml EGF for the times indicated and then counted. The results from three independent growth assays were averaged together and plotted. […]
# NIH3T3 cells were grown in Dulbecco's modified Eagle's medium containing 10% calf serum and 100 units/ml penicillin. […] Protein concentrations were determined using the Bio-Rad DC protein assay. […]
# [5] = system: SKBR3 cells; test: Cell growth assay; details: low serum medium, 5 μM RA or 100 ng/ml EGF, up to 6 days; FIG. 9C
# Experimental: as §1
# Cells were seeded at 1×10^5 cells/well and grown in medium containing 0.5% serum +/−5 μM RA and +/−100 ng/ml EGF. Every 2 days the medium was changed. At 0, 2, 4, and 6 days of treatment, the cells were collected and counted.
# [6] = system: tissue transglutaminase (TG); test: TG expression and activation in MDAMB231 cells (Western blot, GTP-binding, transamidation); details: growth factor (EGF) stimulation, FIG. 9A-B
# Experimental: as §1
# Total cell lysates from each sample were combined with Laemmli sample buffer, boiled, and subjected to SDS-polyacrylamide gel electrophoresis (PAGE). […]
molecule,measurement,setting,value
B1,GTP-binding and enzymatic (transamidation) activity of TG,[1],more effective than RA
same,reduction in the rate of apoptosis,[2],50%
same,TG GTP-binding activity,[3],increased GTP-binding
same,TG expression,[4],up-regulated TG expression
same,growth of SKBR3 cells,[5],did not impede the growth
same,constitutive level of TG expression or activation,[6],did not alter the constitutive level of TG expression or activation
